Values joined by “and” are separate entries in the source; they are usually repeats but may differ in a detail not shown here. Equal entries are not always repeated. [ ]: non-standard residue; d: D form. The star is where a group is joined. NMeW = CN[C@@H](Cc1c[nH]c2ccccc12)C(=O)O; Stearoyl = CCCCCCCCCCCCCCCCCC(=O)*; αMeV = CC(C)[C@](C)(N)C(=O)O; αMeS = C[C@](N)(CO)C(=O)O
T1: β-catenin (UniProt P35222 134-665, limits assumed, biotinylated in the SPR and plate assays)
T1 construct: also called beta catenin; biotinylated β-catenin
T1 sequence (looked up): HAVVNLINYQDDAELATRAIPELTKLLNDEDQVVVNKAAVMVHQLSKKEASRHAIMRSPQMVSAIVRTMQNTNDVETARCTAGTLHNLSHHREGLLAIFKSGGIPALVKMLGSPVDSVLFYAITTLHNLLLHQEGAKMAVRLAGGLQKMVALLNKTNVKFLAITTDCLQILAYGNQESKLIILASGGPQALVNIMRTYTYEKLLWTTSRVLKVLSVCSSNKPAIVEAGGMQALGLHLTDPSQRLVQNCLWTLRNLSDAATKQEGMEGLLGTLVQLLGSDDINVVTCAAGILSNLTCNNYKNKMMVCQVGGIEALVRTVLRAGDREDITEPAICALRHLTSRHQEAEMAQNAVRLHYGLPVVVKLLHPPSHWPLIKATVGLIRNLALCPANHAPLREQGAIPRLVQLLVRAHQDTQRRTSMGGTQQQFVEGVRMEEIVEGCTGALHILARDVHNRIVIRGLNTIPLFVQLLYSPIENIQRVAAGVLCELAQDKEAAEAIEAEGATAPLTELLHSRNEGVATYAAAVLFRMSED

T2: β-catenin in mouse endometriosis lesions (mouse, UniProt Q02248 2-781)
T2 construct: Endogenous protein in fixed tissue sections; also called cytoplasmic β-catenin
T2 sequence (looked up): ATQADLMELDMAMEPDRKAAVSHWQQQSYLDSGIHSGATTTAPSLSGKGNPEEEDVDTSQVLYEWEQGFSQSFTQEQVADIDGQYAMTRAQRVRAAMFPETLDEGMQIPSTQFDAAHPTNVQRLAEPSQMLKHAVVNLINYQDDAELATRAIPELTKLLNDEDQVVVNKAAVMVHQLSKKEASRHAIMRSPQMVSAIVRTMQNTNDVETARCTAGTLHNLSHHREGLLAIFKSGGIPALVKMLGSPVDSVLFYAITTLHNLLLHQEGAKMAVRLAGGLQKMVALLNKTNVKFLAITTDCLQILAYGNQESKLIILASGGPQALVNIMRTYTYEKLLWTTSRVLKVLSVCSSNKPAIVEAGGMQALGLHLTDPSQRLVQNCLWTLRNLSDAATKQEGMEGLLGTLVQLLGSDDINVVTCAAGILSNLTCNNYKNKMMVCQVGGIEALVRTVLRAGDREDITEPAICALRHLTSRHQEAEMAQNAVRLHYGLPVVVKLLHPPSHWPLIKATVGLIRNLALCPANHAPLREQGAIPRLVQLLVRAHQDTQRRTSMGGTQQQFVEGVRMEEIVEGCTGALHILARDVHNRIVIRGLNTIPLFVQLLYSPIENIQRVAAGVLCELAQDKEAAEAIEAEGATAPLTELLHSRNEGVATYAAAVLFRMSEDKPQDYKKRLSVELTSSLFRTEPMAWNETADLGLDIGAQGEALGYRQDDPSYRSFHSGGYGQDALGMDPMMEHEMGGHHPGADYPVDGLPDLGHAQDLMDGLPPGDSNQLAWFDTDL

B1: SEQ ID NO: 270 (Ac-Bcl9(347-381)-AβAβK-CONH2) (peptide)
peptide: NPDGLSQEQLEHRERSLQTLRDIQRMLFPDEKEFTAAK
HELM: PEPTIDE1{[ac].N.P.D.G.L.S.Q.E.Q.L.E.H.R.E.R.S.L.Q.T.L.R.D.I.Q.R.M.L.F.P.D.E.K.E.F.T.[bAla].[bAla].K.[am]}$$$$V2.0
SMILES: CC[C@H](C)[C@H](NC(=O)[C@H](CC(=O)O)NC(=O)[C@H](CCCNC(=N)N)NC(=O)[C@H](CC(C)C)NC(=O)[C@@H](NC(=O)[C@H](CCC(N)=O)NC(=O)[C@H](CC(C)C)NC(=O)[C@H](CO)NC(=O)[C@H](CCCNC(=N)N)NC(=O)[C@H](CCC(=O)O)NC(=O)[C@H](CCCNC(=N)N)NC(=O)[C@H](Cc1c[nH]cn1)NC(=O)[C@H](CCC(=O)O)NC(=O)[C@H](CC(C)C)NC(=O)[C@H](CCC(N)=O)NC(=O)[C@H](CCC(=O)O)NC(=O)[C@H](CCC(N)=O)NC(=O)[C@H](CO)NC(=O)[C@H](CC(C)C)NC(=O)CNC(=O)[C@H](CC(=O)O)NC(=O)[C@@H]1CCCN1C(=O)[C@H](CC(N)=O)NC(C)=O)[C@@H](C)O)C(=O)N[C@@H](CCC(N)=O)C(=O)N[C@@H](CCCNC(=N)N)C(=O)N[C@@H](CCSC)C(=O)N[C@@H](CC(C)C)C(=O)N[C@@H](Cc1ccccc1)C(=O)N1CCC[C@H]1C(=O)N[C@@H](CC(=O)O)C(=O)N[C@@H](CCC(=O)O)C(=O)N[C@@H](CCCCN)C(=O)N[C@@H](CCC(=O)O)C(=O)N[C@@H](Cc1ccccc1)C(=O)N[C@H](C(=O)NCCC(=O)NCCC(=O)N[C@@H](CCCCN)C(N)=O)[C@@H](C)O
notes: Bcl9 residues 347-381, acetylated, with beta-Ala-beta-Ala-K added, amidated
B2: SEQ ID NO: 18 (peptide)
peptide: KAESILDEHVQRVWG
HELM: PEPTIDE1{K.[meA].E.S.I.L.D.E.H.V.Q.R.V.W.G}$PEPTIDE1,PEPTIDE1,1:R3-15:R2$$$V2.0
SMILES: CC[C@H](C)[C@@H]1NC(=O)[C@H](CO)NC(=O)[C@H](CCC(=O)O)NC(=O)[C@H](C)N(C)C(=O)[C@@H](N)CCCCNC(=O)CNC(=O)[C@H](Cc2c[nH]c3ccccc23)NC(=O)[C@H](C(C)C)NC(=O)[C@H](CCCNC(=N)N)NC(=O)[C@H](CCC(N)=O)NC(=O)[C@H](C(C)C)NC(=O)[C@H](Cc2c[nH]cn2)NC(=O)[C@H](CCC(=O)O)NC(=O)[C@H](CC(=O)O)NC(=O)[C@H](CC(C)C)NC1=O
B3: SEQ ID NO: 19 (peptide)
peptide: KAQSILDEHVQRVWG
HELM: PEPTIDE1{K.[meA].Q.S.I.L.D.E.H.V.Q.R.V.W.G}$PEPTIDE1,PEPTIDE1,1:R3-15:R2$$$V2.0
SMILES: CC[C@H](C)[C@@H]1NC(=O)[C@H](CO)NC(=O)[C@H](CCC(N)=O)NC(=O)[C@H](C)N(C)C(=O)[C@@H](N)CCCCNC(=O)CNC(=O)[C@H](Cc2c[nH]c3ccccc23)NC(=O)[C@H](C(C)C)NC(=O)[C@H](CCCNC(=N)N)NC(=O)[C@H](CCC(N)=O)NC(=O)[C@H](C(C)C)NC(=O)[C@H](Cc2c[nH]cn2)NC(=O)[C@H](CCC(=O)O)NC(=O)[C@H](CC(=O)O)NC(=O)[C@H](CC(C)C)NC1=O
B4: SEQ ID NO: 16 (peptide)
peptide: MSRMWFLISFWAG
HELM: PEPTIDE1{M.S.R.M.W.F.L.I.S.F.W.[meA].G}$$$$V2.0
SMILES: CC[C@H](C)[C@H](NC(=O)[C@H](CC(C)C)NC(=O)[C@H](Cc1ccccc1)NC(=O)[C@H](Cc1c[nH]c2ccccc12)NC(=O)[C@H](CCSC)NC(=O)[C@H](CCCNC(=N)N)NC(=O)[C@H](CO)NC(=O)[C@@H](N)CCSC)C(=O)N[C@@H](CO)C(=O)N[C@@H](Cc1ccccc1)C(=O)N[C@@H](Cc1c[nH]c2ccccc12)C(=O)N(C)[C@@H](C)C(=O)NCC(=O)O
B5: SEQ ID NO: 20 (peptide)
peptide: KWAQSILNQHVQRVWG
HELM: PEPTIDE1{K.W.[meA].Q.S.I.L.N.Q.H.V.Q.R.V.W.G}$PEPTIDE1,PEPTIDE1,1:R3-16:R2$$$V2.0
SMILES: CC[C@H](C)[C@@H]1NC(=O)[C@H](CO)NC(=O)[C@H](CCC(N)=O)NC(=O)[C@H](C)N(C)C(=O)[C@H](Cc2c[nH]c3ccccc23)NC(=O)[C@@H](N)CCCCNC(=O)CNC(=O)[C@H](Cc2c[nH]c3ccccc23)NC(=O)[C@H](C(C)C)NC(=O)[C@H](CCCNC(=N)N)NC(=O)[C@H](CCC(N)=O)NC(=O)[C@H](C(C)C)NC(=O)[C@H](Cc2c[nH]cn2)NC(=O)[C@H](CCC(N)=O)NC(=O)[C@H](CC(N)=O)NC(=O)[C@H](CC(C)C)NC1=O

Legend:
β-catenin [1] = molecular target: T1, β-catenin; test: SPR (Biacore); SPR (Biacore), direct binding
Method: Biotinylated protein (beta catenin) was immobilized on a high-affinity streptavidin (SA) sensor chip (GE). Peptide at increasing concentrations was flowed over in HBS EP+ buffer at room temperature according to manufacturer's instructions. The maximum binding capacity of the surface (response at saturation) was calculated using the Biacore® system (GE) instructions and binding was measured at each concentration as a data point. The binding levels were determined over a range of analyte concentrations of at least from 20% to 80% saturation of the surface. On rates, off rates, and KD were calculated using Biacore® Insight Evaluation Software software (GE).

β-catenin [2] = molecular target: T1, β-catenin; test: competitive FP
Summary of the method: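 Competitive fluorescence polarization with inhibitor peptide serially diluted from 10 nM to 30 uM; polarization read at 470 nm excitation, 520 nm emission. Experiments performed three times.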

[3] = molecular target: T2, β-catenin in mouse endometriosis lesions; test: immunofluorescence co-localisation in mouse lesions
Method: Endometriosis was established in a mouse model of disease. Mice were allowed to establish endometriosis for 3 weeks. […] To assess the localization of the peptides and β-catenin, lesions from the endometriosis mouse model were assessed. On the last day of treatment, in order to visualize the peptide localization to the lesion(s), mice were dosed with a biotinylated tagged peptide therapeutic or control. Mice were euthanized, lesions were removed, and fixed in formalin for histology and immunohistochemistry. […] Immunohistochemical negative controls were performed on lesion sections from all treatment groups using IgG non-specific antibodies (Rabbit-IgG, AbCam 1:100).

β-catenin [4] = molecular target: T1, β-catenin; test: cell-based or functional assay

Row | Binder | Kd (β-catenin [1]) [µM] | Kd (β-catenin [2]) [µM] | binding result [3] | Proliferation IC50, Endo cells (β-catenin [4]) [µM] | Proliferation IC50, Wnt dependent cells (β-catenin [4]) [µM] | Wnt Reporter EC50 (β-catenin [4])
1 | B1 | 0.546 | > 30 | – | – | – | –
2 | Stearoyl-W[NMeW]E[αMeS]ILDEH[αMeV]QRVW-OH (393 used) [Peptide 4 (SEQ ID NO: 393/500)] | – | – | binds | 5 | 1.7 | ≤ 7.5 µM
3 | B2 | 0.076 | > 30 | – | – | – | > 30 µM
4 | B3 | 0.059 | > 30 | – | – | – | > 30 µM
5 | H-MSRMWFLISFWMG-OH [SEQ ID NO: 14] | 0.25 | > 30 | – | – | – | ≤ 7.5 µM
6 | B4 | 0.12 | > 30 | – | – | – | > 15 µM and ≤ 22.5 µM
7 | B5 | 0.048 | > 30 | – | – | – | > 30 µM
8 | KMIRMWFLISFWG (cyclo-H2N-K(Aoc*)MIRM-NmeW-FLISFWG*) [SEQ ID NO: 21] | 0.337 | > 30 | – | – | – | > 30 µM

— patent US20260098059A1 (ENDOMET BIOSCIENCES, published 2026)
